# Test system: MS2 coat protein
# Assay: apparent KD of MS2 coat protein; designed switch direction (-1 OFF switch, 1 ON switch): -1; higher = weaker reporter binding
# Outline: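 SNAP-549-labelled MS2 coat protein was titrated, doubling from 0.7 or 1.5 nM to 3 µM, over designed RNA switches transcribed on Illumina chips by stalled E. coli RNA polymerase. Runs were done without input, with 200 uM small-molecule ligand, or with an oligonucleotide input. Apparent KD is the per-design median over clusters of curve-fitted normalised fluorescence.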
# [1] = input ligand: microRNA oligo, concentration not stated
# [2] = Eterna round: R95, input ligand: microRNA oligo, concentration not stated
# [3] = Eterna round: R95, input ligand: FMN 200 uM
# [4] = Eterna round: R95, input ligand: none
Sequence,apparent KD of MS2 coat protein [1] [nM],apparent KD of MS2 coat protein (input ligand: FMN 200 uM) [nM],apparent KD of MS2 coat protein (input ligand: none) [nM],apparent KD of MS2 coat protein [2] [nM],apparent KD of MS2 coat protein [3] [nM],apparent KD of MS2 coat protein [4] [nM]
"CAGUACUGAGGAUAUACAUGAGGAUCACCCAUGUGUCCCAGCUAGGAAACUAGCAAAAGUAGAAGGCAGUACUG [Fiskers Ex 3 828 mod 1] (Eterna round: R96, puzzle: Exclusion 3)",20.6,–,–,–,–,–
"GAUCAACAAUCGAGCGGAUACAUGAGGAUCACCCAUGUCCGUAGUCGGGUAAAUAACAAGCUUUUUUCGCCGUCCCU [Eternabot (Original) Solution 42] (Eterna round: R97, puzzle: Sensor, turn-off variant 1)",–,15.4,14.9,–,–,–
"AAACACCAAGGAUAUACAUGAGGAUCACCCAUGUGGUCCGGCACGGGUCUCGAUUCGAGUAGAAGGUGGAUGGG [Eternabot (L1) Solution 80] (Eterna round: R97, puzzle: Exclusion 3)",–,56.7,76.5,–,–,–
"AUUGAUGUUGAGGAUAUGCUUUUAUUUAUAAUAGCAGAAGGCGAUACAUGAGGAUCACCCAUGUUCAUGGUAGU [JR_E6_Sub095] (Eterna round: R96, puzzle: Exclusion 6)",52.3,77.6,63.4,–,–,–
"UUUAUGUCAGGAUAUACAUGAGGAUCACCCAUGUAUAUCUUAAAGUAUACAUGGGAAUGUAGAAGGGACCUCCU [Omei Ex3 Pseudoloop 5] (Eterna round: R97, puzzle: Exclusion 3)",–,43.8,35,–,–,–
"AUGGGACAUGAGGAUCACCCAUGUCAGGAUAUGCUCUGAUGCGGCGUACGCCGUGCUAGCAGAAGGGACUACCU [EX1 C.19] (Eterna round: R97, puzzle: Exclusion 1)",–,29,28,–,–,–
"ACAUGAGGAUCACCCAUGUGAAAAGAAUGGCUGACACAGAGAUAGGAUAUAUGUGCAUAUCUAACGUAGAAGGGUCAUGACUGG [Deportation 78 - Jieux - Exclusion NG 3] (Eterna round: R96, puzzle: Exclusion NG 3)",26.5,–,–,–,–,–
UUUUAACAUGAGGAUCACCCAUGUGAGGAUAUCGAAAUUUAUAUUAAUAUUAAUAAAUCGAGAAGGCACAUUUU [JMF 20] (puzzle: Exclusion 1),–,–,–,109,–,–
CUCCUACAUGAGGAUCACCCAUGUCAGGAUAUCUCAGUGGCGCCUAAAUGUGCCACCCAGAGAAGGGACGUGCA [Zainceve] (puzzle: Exclusion 1),–,–,–,12.3,–,–
"UUUUGGCAGGCUAUUAUUAACAUGAGGAUCACCCAUGUGCAUCCAAAAUUACUUUUAGAUCUUGCUCGUCUUAUAUA [JR_STOV1_Sub086] (Eterna round: R97, puzzle: Sensor, turn-off variant 1)",–,379,684,–,–,–
"GUGGAGGUAGGAUAUCCGCUUCCGGACAUGAGGAUCACCCAUGUUGUUCGGAUUGGACAGGGAGAAGGGCCCACAA [Eternabot (Original) Solution 37] (Eterna round: R97, puzzle: Exclusion 5)",–,44.9,39.3,–,–,–
GCCAGAGCAGGAUAUUCAAUAUUCCACAUGAGGAUCACCCAUGUCCAGCGAAAGCUGGAGGGAGAAGGGCUCUGGC [Fiskers Ex 5 - 8] (puzzle: Exclusion 5),–,–,–,43.6,27.3,56.3
"GAAACGGGUGCACCUCAGUCACAUGAGGAUCACCCAUGUUCUGAGGAUAUGCAUCCAAACGGAACGCAGAAGGCGGAACGUAAC [Beisoner] (Eterna round: R96, puzzle: Exclusion NG 3)",14,14.6,16.4,–,–,–
AUUGAUGUUGAGGAUAUGCAUAUAUUUAUACUAGCAGAAGGCGAUACAUGAGGAUCACCCAUGUUCAUGGAAGU [JR_E6_Sub093] (puzzle: Exclusion 6),–,–,–,24.7,39.1,28
"GUCAGCUCGUCAGGAUAUGAACAUGAGGAUCACCCAUGUAAGAUCAAGCUGCUUCGGCAGCAAGUUCAGAAGGGACGAGCUGAU [ENG2/10-B2] (Eterna round: R96, puzzle: Exclusion NG 2)",136,167,104,–,–,–
GAGAAGGUAGGAUAUACGAAUAAAUAGGGUAGUAAGAAGACACAUGAGGAUCACCCAUGUAGAAGGACCAAGAG [Mat - Exclusion 2 - Mod of my Tesla design - D37] (puzzle: Exclusion 2),–,–,–,19.2,34.6,21.8
"AAAUAGCUAGAGGAUAUCGGAUAGAAUUUAUUACGAGAAGGUUAGACAUGAGGAUCACCCAUGUUCUGUUGGGA [EX6 #22] (Eterna round: R97, puzzle: Exclusion 6)",–,70,33.8,–,–,–

Sequence,apparent KD of MS2 coat protein [1] [nM],apparent KD of MS2 coat protein (input ligand: FMN 200 uM) [nM],apparent KD of MS2 coat protein (input ligand: none) [nM],apparent KD of MS2 coat protein [2] [nM],apparent KD of MS2 coat protein [3] [nM],apparent KD of MS2 coat protein [4] [nM]
"GUUUUGGGAGGAUAUAUGUGGAUAAUUUUUAUAUGAAAAUUACAUGAGGAUCACCCAUGUAGAAGGUCUAGAGC [-17.2, -15.1 kcal, 32% A] (Eterna round: R97, puzzle: Exclusion 2)",–,473,637,–,–,–
GCAGGAUAAGUGAGGAUAUACCUCUGGAUACAGAGGUAGAAGGCACAUGAGGAUCACCCAUGUCAUUCACCUGC [Fiskers BMX 4 - 77] (puzzle: Brourd's mod of Exclusion 4),–,–,–,14.4,–,–
"CAGCUGAAAGUCAGGAUAUCUAGAGCGAUAGCUCUAGAGAAGGGACAUGAGGAUCACCCAUGUGAUCACAGCUG [BmEx4/4-A4] (Eterna round: R97, puzzle: Brourd's mod of Exclusion 4)",–,408,1980,–,–,–
"GAUCAUGCAGGAUAUACAGUAACCAUGAAAACAUGGUUGCUACAUGAGGAUCACCCAUGUAGAAGGGCAUGAUC [Omei Ex2 A2] (Eterna round: R97, puzzle: Exclusion 2)",–,17.9,16.9,–,–,–
"GGUCCGUGUGUGAGGAUAUGCUGGUCCUUGGAUCAGCAGAAGGCACAUGAGGAUCACCCAUGUGGUGUCGGACC [Mat - Exclusion 4 - Eli Mod - D33] (Eterna round: R97, puzzle: Brourd's mod of Exclusion 4)",–,24.6,361,–,–,–
"UUCGGCGGAGGAUAUACAUAUUUUUGUUGAAUCGGCGGAAAACAUGAGGAUCACCCAUGUAGAAGGUUGUUGAA [-16.3, -13.4 kcal, A 30%] (Eterna round: R97, puzzle: Exclusion 2)",–,27.2,32.3,–,–,–
"UUCGUACAGCUUUGCUGUACGCGUACAUGAGGAUCACCCAUGUAGGAUAUGGUAGGCAAAGCUUACUAGAAGGAUAGAGUGAUC [Mat - Exclusion NG 3 - Mod of JL - D75] (Eterna round: R96, puzzle: Exclusion NG 3)",96.2,244,238,–,–,–
"CUAGCGAUUGUAGGAUAUCGGACUGUUUCAGUCUGAGAAGGACAUGAGGAUCACCCAUGUGAUGGAUCGUGAGAUCCACGCUAG [JL ENG1 3.80] (Eterna round: R96, puzzle: Exclusion NG 1)",25.7,195,27.9,–,–,–
GUAAAGUGAGGAUAUGGUAAAGUAAUUAUUUAGUAAGUAAUCCAGAAGGCACAUGAGGAUCACCCAUGUAAAUG [Mat - Exclusion 4 - D97] (puzzle: Exclusion 4),–,–,–,25.7,–,–
"GAUCUACAUGAGGAUCACCCAUGUGAGGAUAUUUAGACCAACGCUCUAGCUGUUGAUGGAAGAAGGCACCACCG [Eternabot (L2) Solution 56] (Eterna round: R97, puzzle: Exclusion 1)",–,25.4,26.2,–,–,–
"UUAAAUCAUGUAGGAUAUGCGUGGCGAAGCUAUGCAGAAGGACAUGAGGAUCACCCAUGUCUUUCCGUCUGCGUACAGAUGGAA [JL Eng1 1.08 mod 2] (Eterna round: R96, puzzle: Exclusion NG 1)",19.8,259,24.8,–,–,–
"AGUAACCGUCACGAAAGUGAUGGUUACGCAAGCAAAUGUACAUGAGGAUCACCCAUGUCCUCAAUUGCUCGUCUUAU [Sensor 3 - 51] (puzzle: Sensor v3, turn-off variant 2)",–,–,–,175,102,114
AAAAGAAGUGUUAGGAUAUGUGGAAGUAGAAAGACACAGAAGGAACAUGAGGAUCACCCAUGUGGCCUAAGAAC [Bibire] (puzzle: Brourd's mod of Exclusion 4),–,–,–,10.5,15.4,11.6
"CCAAGCAAAAUCAUUAACAACAUGAGGAUCACCCAUGUGUAAGCAAUUAUGUUUGGGCUCUUUAGAGCUCGUCUUAU [JR_STOV1_Sub044] (Eterna round: R97, puzzle: Sensor, turn-off variant 1)",–,13.5,14.2,–,–,–
AGUUGGCGAGGAUAUACAUGAGGAUCACCCAUGUGAGAGAAUAAAGUGAGGAAGAAAAGUAGAAGGCGCUGACA [Mat - Exclusion 3 - Mod of Salish D9] (puzzle: Exclusion 3),–,–,–,47.7,–,–
"ACAUGAGGAUCACCCAUGUGACCACAAUGGCUGAUGUAACGACAGGAUAUUCGUGAAUAUCUAACGAAGAAGGGUCAUGACUGG [Deportation 62 - Jieux - Exclusion NG 3] (Eterna round: R96, puzzle: Exclusion NG 3)",52.7,98.8,60.2,–,–,–
AAAAAACAAGGAUAUACGUAUGAGGAUUGUCUUAAUUUUUGACAUGAGGAUCACCCAUGUAGAAGGUGUUAAAA [JR_Exclusion2_Sub015] (puzzle: Exclusion 2),–,–,–,94.9,–,–
